Measured values published in patent publication US20170290925A1, “Conjugates And Conjugating Reagents” (priority 2014, published 2017).
pIC50: −log10 of the molar value. Where a SMILES comes first, the peptide text is derived from it. [ ]: non-standard residue; d: D form. The star is where a group is joined. Dolaproine = CO[C@@H]([C@@H]1CCCN1)[C@@H](C)C(=O)O; Dil = CC[C@H](C)[C@H](NC)[C@@H](CC(=O)O)OC; X1 = C[C@@H](N*)[C@@H](O)c1ccccc1; NMeV = CN[C@H](C(=O)O)C(C)C

How the values were obtained:
[1] = tested on: CD30-positive Karpas 299 cell line; test: In vitro cell viability assay (CellTiter Glo) in Karpas 299; assay type: cell-based, human; settings: Karpas 299 cells, 72 h incubation, conjugates DAR 4
Experimental: Purified brentuximab drug conjugates 10 and 11 with a drug to antibody ratio (DAR) of four as described in Example 6, were evaluated in vitro by measuring the inhibitory effect on cell growth of (CD30)-positive cell line Karpas 299 using the method described below.
Loss of tumour cell viability following treatment with cytotoxic drugs or ADCs in vitro can be measured by growing cell lines in the presence of increasing concentrations of drugs or ADCs and quantifying the loss of proliferation or metabolic activity using CellTiter Glo® Luminescence reagent (Promega Corp. Technical Bulletin TB288; Lewis Phillips G. D, Cancer Res 2008; 68:9280-9290). […]
The human T cell lymphoma cell line Karpas 299 was obtained from Dr Abraham Karpas at the University of Cambridge. […] CD30-positive Karpas 299 were counted using a Neubauer haemocytometer and adjusted to a cell density of 5×10^4/mL. […]
The cell viability assay was carried out using the Cell-Titer Glo® Luminescence reagent, as described by the manufacturer's instructions, (Promega Corp. Technical Bulletin TB288; Lewis Phillips G. D, Cancer Res 2008; 68:9280-9290). […] Luminescence was recorded using a plate reader (e.g. MD Spectramax M3 plate reader), and data subsequently analysed using a four parameter non-linear regression model. […]

[2] = In vivo pharmacokinetics in rats, total (anti-CD30 antibody) ELISA; design: species or system Sprague-Dawley rats; settings: single dose 7 mg/kg IV, period of 850 h
Experimental: (§1) Brentuximab conjugate 10 was used in this study as the ADC with a pendant PEG group. Brentuximab conjugate 11 was used as a comparator with a non-pendant PEG group.
(§2) In vivo pharmacokinetics in rats. Sprague-Dawley rats (3 rats per group) with an average weight of 200 g were treated with either 10, 11 or Adcetris®, via the tail vein (IV, bolus) at a single dose of 7 mg/kg. Serial sampling of 100 μL blood was performed before dosing and subsequently at 30 min, 24 h, 48 h, 7 d, 14 d and 35 d post-dosing respectively. Plasma was prepared from fresh blood samples and frozen at −80° C. until analysis.
Total (anti-CD30 antibody) ELISA. Total brentuximab antibody content from plasma samples was quantified using ELISA technology. Briefly, Maxisorp™ 96 well plates (Nunc/Fisher) were coated with recombinant human CD30, (Sino Biological Inc, 2.5 μg/mL in diluent) and incubated at 4° C. overnight. Plasma samples were diluted to ensure that the unknown ADCs fell within the linear range of the sigmoidal standard calibration curve. […]
IgG, (Promega) was added to the plate and the samples were incubated for 1 hour at room temperature on a shaker at 350 rpm. […] The assay was stopped with 100 μL of 0.5 M H2SO4 and read at UV λ=[…] using the plate reader. Data were plotted and evaluated in GraphPad Prism 5 and Microsoft Excel.

[3] = In vivo pharmacokinetics in rats, average DAR by CD30 affinity capture and HIC; design: species or system Sprague-Dawley rats; settings: single dose 7 mg/kg IV, period of 850 h
Experimental: as §1, §2
CD30 affinity capture for average DAR determination Affinity capture was performed using streptavidin coated magnetic beads (Dynabeads-Streptavidin T1, Life Technologies). […] 500 1AL of the plasma sample in PBS was added to the CD30-coated beads and incubated overnight at 4° C. and finally washed using PBS. Captured antibodies were eluted using acidic elution buffer for 5 minutes at 4° C. […] Eluted samples were further mixed with HIC loading buffer and analysed using hydrophobic interaction chromatography with UV detection (HIC-UV).
Hydrophobic interaction chromatography for average DAR determination. Affinity captured ADCs were analysed using hydrophobic interaction chromatography in order to determine the average drug to antibody ratio (DAR). […]

| Molecule | pIC50 [1] | Rate of clearance from the circulation (total antibody) [2] | Rate of drug loss from the conjugate (average DAR) [3] |
| --- | --- | --- | --- |
| CC[C@H](C)[C@@H]([C@@H](CC(=O)N1CCC[C@H]1[C@H](OC)[C@@H](C)C(=O)N[C@H](C)[C@@H](O)c1ccccc1)OC)N(C)C(=O)[C@@H](NC(=O)[C@@H](NC)C(C)C)C(C)C [MMAE] (H-[NMeV]V[Dil][Dolaproine]-X1) | 9.98 | – | – |
| Adcetris® | – | cleared more quickly | much faster rate of drug dissociation |
